Results from PMC10397247.

Legend:
[1] = biological target: T1, APC2474-AA; experiment: two-hybrid library CCmax;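 further: natural log of median RNA to DNA barcode read ratio; higher means stronger binding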
T1 chain: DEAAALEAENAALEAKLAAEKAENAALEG

[2] = biological target: T2, APC2375-AA; experiment: two-hybrid library CCmax; details: mean of both orientations;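 further: natural log of median RNA to DNA barcode read ratio; higher means stronger binding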
T2 chain: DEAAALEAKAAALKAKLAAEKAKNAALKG

[3] = biological target: T3, APC542-AA; experiment: two-hybrid library CCmax;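 further: natural log of median RNA to DNA barcode read ratio; higher means stronger binding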
T3 chain: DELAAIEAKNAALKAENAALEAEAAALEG

[4] = biological target: T4, APC8401-AA; experiment: two-hybrid library CCmax; details: mean of both orientations;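 further: natural log of median RNA to DNA barcode read ratio; higher means stronger binding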
T4 chain: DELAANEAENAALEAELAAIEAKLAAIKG

[5] = biological target: T5, APC9291-AA; experiment: two-hybrid library CCmax; details: mean of both orientations
T5 chain: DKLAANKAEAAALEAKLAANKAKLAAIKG

[6] = biological target: T6, APC6088-AA; experiment: two-hybrid library CCmax; details: mean of both orientations
T6 chain: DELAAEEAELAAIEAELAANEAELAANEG

[7] = biological target: T7, APC8516-AA; experiment: two-hybrid library CCmax
T7 chain: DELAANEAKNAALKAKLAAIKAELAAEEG

[8] = biological target: T8, APC3265-AA; experiment: two-hybrid library CCmax; details: mean of both orientations
T8 chain: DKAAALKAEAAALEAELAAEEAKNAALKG

[9] = biological target: T9, APC2556-AA; experiment: two-hybrid library CCmax; details: mean of both orientations
T9 chain: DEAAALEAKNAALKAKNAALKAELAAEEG

[10] = biological target: T10, APC5009-AA; experiment: two-hybrid library CCmax; details: mean of both orientations
T10 chain: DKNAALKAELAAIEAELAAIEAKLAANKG

[11] = biological target: T11, APC2257-AA; experiment: two-hybrid library CCmax; details: mean of both orientations
T11 chain: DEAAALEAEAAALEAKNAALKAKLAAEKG

[12] = biological target: T12, APC2981-AA; experiment: two-hybrid library CCmax; details: mean of both orientations
T12 chain: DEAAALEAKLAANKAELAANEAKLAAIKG

[13] = biological target: T13, APC9182-AA; experiment: two-hybrid library CCmax; details: mean of both orientations
T13 chain: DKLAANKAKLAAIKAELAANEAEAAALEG

[14] = biological target: T14, APC5531-AA; experiment: two-hybrid library CCmax
T14 chain: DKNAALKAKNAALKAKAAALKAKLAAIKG

[15] = biological target: T15, APC4100-AA; experiment: two-hybrid library CCmax; details: mean of both orientations
T15 chain: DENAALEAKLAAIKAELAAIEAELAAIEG

[16] = biological target: T16, APC9141-AA; experiment: two-hybrid library CCmax; details: mean of both orientations
T16 chain: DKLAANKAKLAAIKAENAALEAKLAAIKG

[17] = biological target: T17, APC7524-AA; experiment: two-hybrid library CCmax; details: mean of both orientations
T17 chain: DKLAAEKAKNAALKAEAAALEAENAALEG

[18] = biological target: T18, APC2811-AA; experiment: two-hybrid library CCmax; details: mean of both orientations
T18 chain: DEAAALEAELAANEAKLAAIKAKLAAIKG

[19] = biological target: T19, APC222-AA; experiment: two-hybrid library CCmax
T19 chain: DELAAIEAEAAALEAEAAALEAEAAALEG

[20] = biological target: T20, APC3323-AA; experiment: two-hybrid library CCmax; details: mean of both orientations
T20 chain: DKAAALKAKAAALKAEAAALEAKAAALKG

[21] = biological target: T21, APC2724-AA; experiment: two-hybrid library CCmax; details: mean of both orientations
T21 chain: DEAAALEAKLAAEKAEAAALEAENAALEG

[22] = biological target: T22, APC3881-AA; experiment: two-hybrid library CCmax; details: mean of both orientations
T22 chain: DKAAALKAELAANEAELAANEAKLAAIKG

[23] = biological target: T23, APC2543-AA; experiment: two-hybrid library CCmax; details: mean of both orientations
T23 chain: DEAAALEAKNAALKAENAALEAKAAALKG

[24] = biological target: T24, APC4336-AA; experiment: two-hybrid library CCmax; details: mean of both orientations
T24 chain: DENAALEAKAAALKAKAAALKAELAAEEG

[25] = biological target: T25, APC3354-AA; experiment: two-hybrid library CCmax; details: mean of both orientations
T25 chain: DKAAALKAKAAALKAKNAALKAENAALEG

[26] = biological target: T26, APC9806-AA; experiment: two-hybrid library CCmax; details: mean of both orientations
T26 chain: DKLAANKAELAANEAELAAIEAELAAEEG

[27] = biological target: T27, 4H496-bN; experiment: two-hybrid library CCNG1
T27 chain: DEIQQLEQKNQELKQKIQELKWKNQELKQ

[28] = biological target: T28, 4H3070-bN; experiment: two-hybrid library CCNG1; details: mean of both orientations
T28 chain: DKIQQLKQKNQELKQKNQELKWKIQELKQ

[29] = biological target: T29, 4H342-bN; experiment: two-hybrid library CCNG1
T29 chain: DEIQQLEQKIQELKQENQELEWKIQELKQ

[30] = biological target: T30, 4H3632-bN; experiment: two-hybrid library CCNG1
T30 chain: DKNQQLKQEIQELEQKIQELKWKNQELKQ

[31] = biological target: T31, 4H2646-AA; experiment: two-hybrid library CCmax; details: mean of both orientations
T31 chain: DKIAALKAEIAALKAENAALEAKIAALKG

[32] = biological target: T32, 4H2512-AA; experiment: two-hybrid library CCmax; details: mean of both orientations
T32 chain: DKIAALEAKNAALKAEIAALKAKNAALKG

[33] = biological target: T33, 4H390-AA; experiment: two-hybrid library CCmax; details: mean of both orientations
T33 chain: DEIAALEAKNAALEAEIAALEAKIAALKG

[34] = biological target: T34, 4H233-AA; experiment: two-hybrid library CCmax; details: mean of both orientations
T34 chain: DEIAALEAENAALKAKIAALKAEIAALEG

[35] = biological target: T35, 4H3625-AA; experiment: two-hybrid library CCmax; details: mean of both orientations
T35 chain: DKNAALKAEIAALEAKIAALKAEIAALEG

[36] = biological target: T36, 4H2758-AA; experiment: two-hybrid library CCmax; details: mean of both orientations
T36 chain: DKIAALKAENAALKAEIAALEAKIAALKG

[37] = biological target: T37, 4H510-AA; experiment: two-hybrid library CCmax; details: mean of both orientations
T37 chain: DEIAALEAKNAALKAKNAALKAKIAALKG

[38] = biological target: T38, 4H2187-AA; experiment: two-hybrid library CCmax; details: mean of both orientations
T38 chain: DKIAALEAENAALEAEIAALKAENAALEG

[39] = biological target: T39, 4H2985-AA; experiment: two-hybrid library CCmax; details: mean of both orientations
T39 chain: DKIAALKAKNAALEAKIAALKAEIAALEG

[40] = biological target: T40, 4H2687-AA; experiment: two-hybrid library CCmax; details: mean of both orientations
T40 chain: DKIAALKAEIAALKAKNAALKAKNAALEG

[41] = biological target: T41, 4H1985-AA; experiment: two-hybrid library CCmax
T41 chain: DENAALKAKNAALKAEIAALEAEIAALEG

[42] = biological target: T42, 4H2873-AA; experiment: two-hybrid library CCmax; details: mean of both orientations
T42 chain: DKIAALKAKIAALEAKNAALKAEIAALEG

[43] = biological target: T43, 4H278-AA; experiment: two-hybrid library CCmax; details: mean of both orientations
T43 chain: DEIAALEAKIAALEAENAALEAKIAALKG

[44] = biological target: T44, 4H3940-AA; experiment: two-hybrid library CCmax; details: mean of both orientations
T44 chain: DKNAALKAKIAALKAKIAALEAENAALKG

[45] = biological target: T45, 4H2705-AA; experiment: two-hybrid library CCmax; details: mean of both orientations
T45 chain: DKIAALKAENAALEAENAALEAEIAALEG

[46] = biological target: T46, 4H87-AA; experiment: two-hybrid library CCmax
T46 chain: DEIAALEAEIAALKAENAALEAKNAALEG

[47] = biological target: T47, 4H816-AA; experiment: two-hybrid library CCmax; details: mean of both orientations
T47 chain: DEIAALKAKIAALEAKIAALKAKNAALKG

[48] = biological target: T48, 4H775-AA; experiment: two-hybrid library CCmax; details: mean of both orientations
T48 chain: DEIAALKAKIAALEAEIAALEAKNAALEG

[49] = biological target: T49, 4H3134-AA; experiment: two-hybrid library CCmax; details: mean of both orientations
T49 chain: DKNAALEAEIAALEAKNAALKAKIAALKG

[50] = biological target: T50, 4H3409-AA; experiment: two-hybrid library CCmax; details: mean of both orientations
T50 chain: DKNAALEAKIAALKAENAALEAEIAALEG

[51] = biological target: T51, P6bHq; experiment: two-hybrid library CCNG1
T51 chain: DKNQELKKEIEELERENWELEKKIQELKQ

[52] = biological target: T52, P5bHq; experiment: two-hybrid library CCNG1
T52 chain: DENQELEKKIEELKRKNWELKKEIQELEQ

[53] = biological target: T53, P9bHq; experiment: two-hybrid library CCNG1
T53 chain: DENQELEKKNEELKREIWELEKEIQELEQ

[54] = biological target: T54, P2bHq; experiment: two-hybrid library CCNG1
T54 chain: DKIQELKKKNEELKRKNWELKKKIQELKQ

[55] = biological target: T55, P4bHq; experiment: two-hybrid library CCNG1
T55 chain: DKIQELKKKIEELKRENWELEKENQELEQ

[56] = biological target: T56, P7bHq; experiment: two-hybrid library CCNG1
T56 chain: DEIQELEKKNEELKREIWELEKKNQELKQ

[57] = biological target: T57, P8bHq; experiment: two-hybrid library CCNG1
T57 chain: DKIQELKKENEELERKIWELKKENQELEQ

[58] = biological target: T58, 4H850-bA; experiment: two-hybrid library CCNG1
T58 chain: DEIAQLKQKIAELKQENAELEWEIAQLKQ

[59] = biological target: T59, 4H470-bN; experiment: two-hybrid library CCNG1
T59 chain: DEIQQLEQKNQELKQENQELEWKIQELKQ

[60] = biological target: T60, 4H3907-bN; experiment: two-hybrid library CCNG1
T60 chain: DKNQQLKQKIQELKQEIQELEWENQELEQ

[61] = biological target: T61, 4H2745-bN; experiment: two-hybrid library CCNG1
T61 chain: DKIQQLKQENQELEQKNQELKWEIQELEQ

[62] = biological target: T62, 4H363-bN; experiment: two-hybrid library CCNG1
T62 chain: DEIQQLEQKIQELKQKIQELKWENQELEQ

[63] = biological target: T63, 4H344-bN; experiment: two-hybrid library CCNG1
T63 chain: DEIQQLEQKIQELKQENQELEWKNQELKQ

[64] = biological target: T64, 4H3961-bN; experiment: two-hybrid library CCNG1
T64 chain: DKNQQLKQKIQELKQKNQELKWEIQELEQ

B1: APC222-AA (peptide)
chain: DELAAIEAEAAALEAEAAALEAEAAALEG
interaction score [1]: -1.83
interaction score [2]: -1.53
interaction score [3]: -1.23
interaction score [4]: -1.94
interaction score [5]: -1.82
interaction score [6]: -1.62
interaction score [7]: -1.79
interaction score [8]: -1.62
interaction score [9]: -2.32
interaction score [10]: -2.08
interaction score [11]: -1.71
interaction score [12]: -1.93
interaction score [13]: -1.69
interaction score [14]: -1.91
interaction score [15]: -1.75
interaction score [16]: -1.74
interaction score [17]: -2.39
interaction score [18]: -1.59
interaction score [19]: -2.62
interaction score [20]: -0.292
interaction score [21]: -2.15
interaction score [22]: -1.61
interaction score [23]: -1.8
interaction score [24]: -1.82
interaction score [25]: -1.41
interaction score [26]: -1.68

B2: 4H3070-bN (peptide)
chain: DKIQQLKQKNQELKQKNQELKWKIQELKQ
interaction score [27]: -1.31
interaction score [28]: -1.41
interaction score [29]: 0.751
interaction score [30]: -1.38

B3: 4H1985-AA (peptide)
chain: DENAALKAKNAALKAEIAALEAEIAALEG
interaction score [31]: 0.352
interaction score [32]: -1.41
interaction score [33]: 1.06
interaction score [34]: 0.704
interaction score [35]: -0.122
interaction score [36]: 0.628
interaction score [37]: -0.896
interaction score [38]: -2.04
interaction score [39]: -0.418
interaction score [40]: -1.92
interaction score [41]: -1.91
interaction score [42]: -1.18
interaction score [43]: -1.45
interaction score [44]: -0.542
interaction score [45]: -1.05
interaction score [46]: -1.37
interaction score [47]: -0.103
interaction score [48]: -1.28
interaction score [49]: -0.682
interaction score [50]: -1.05

B4: P2bHq (peptide)
chain: DKIQELKKKNEELKRKNWELKKKIQELKQ
interaction score [51]: 1.33
interaction score [52]: 0.419
interaction score [53]: -1.74
interaction score [54]: 0.693
interaction score [55]: 0.0617
interaction score [56]: 0.668
interaction score [57]: 0.361

B5: 4H2745-bN (peptide)
chain: DKIQQLKQENQELEQKNQELKWEIQELEQ
interaction score [58]: -0.544
interaction score [59]: 1.07
interaction score [60]: -1.56
interaction score [61]: -0.754
interaction score [62]: -0.693
interaction score [63]: -0.786
interaction score [64]: -0.46
